Data as given in publication doi:10.1101/716654 (bioRxiv, 2019).

Target: the molecule itself
Test: native gel or EMSA

B1: hNav1.7^GFP (human voltage-gated sodium channel Nav1.7 fused to C-terminal GFP) (natural protein)
chain: not shown
- stoichiometry N: 2
